This assay addresses PSD-95, endogenous, in cultured cortical neurons (mouse) (UniProt Q62108). The assay can be described thus: cell-based or functional assay.

Sequence of PSD-95, endogenous, in cultured cortical neurons (mouse) (Q62108 whole entry): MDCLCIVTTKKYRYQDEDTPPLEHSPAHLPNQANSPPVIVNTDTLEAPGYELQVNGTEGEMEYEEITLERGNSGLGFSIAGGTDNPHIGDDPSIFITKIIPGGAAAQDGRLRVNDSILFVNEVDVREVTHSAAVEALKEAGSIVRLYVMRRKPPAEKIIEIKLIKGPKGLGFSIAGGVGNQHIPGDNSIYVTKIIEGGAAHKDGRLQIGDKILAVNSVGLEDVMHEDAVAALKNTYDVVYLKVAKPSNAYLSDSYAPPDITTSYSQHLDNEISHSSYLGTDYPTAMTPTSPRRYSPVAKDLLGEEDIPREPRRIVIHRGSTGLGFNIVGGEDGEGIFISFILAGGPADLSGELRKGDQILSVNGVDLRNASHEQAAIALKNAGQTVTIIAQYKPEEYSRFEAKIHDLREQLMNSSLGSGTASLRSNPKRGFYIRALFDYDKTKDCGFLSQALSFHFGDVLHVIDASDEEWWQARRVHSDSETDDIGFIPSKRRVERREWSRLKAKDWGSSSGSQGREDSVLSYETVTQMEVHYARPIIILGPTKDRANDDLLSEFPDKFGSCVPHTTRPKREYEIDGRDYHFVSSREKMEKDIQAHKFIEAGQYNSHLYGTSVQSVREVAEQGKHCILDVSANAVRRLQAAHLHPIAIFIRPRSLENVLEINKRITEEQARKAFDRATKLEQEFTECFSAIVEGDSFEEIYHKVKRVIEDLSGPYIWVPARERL

Tat-NR2B9c (peptide) registered an NMDA-evoked cGMP production in cortical cultures (surrogate of NO production by nNOS) of 39.5%.

The values above are taken from patent US20050059597A1.
